Experimental findings from article PMC6261992, “Structural insight into D-xylose utilization by xylose reductase from Scheffersomyces stipitis” (Scientific Reports, 2018) are described below.

Substrate in series [1]: NC(=O)C1=CN([C@@H]2O[C@H](COP(=O)(O)OP(=O)(O)OC[C@H]3O[C@@H](n4cnc5c(N)ncnc54)[C@H](OP(=O)(O)O)[C@@H]3O)[C@@H](O)[C@H]2O)C=CC1
The experiment in a line: purified protein. The format is biochemical, Scheffersomyces stipitis. To be noted: 150 mM NaCl, 100 mM D-xylose, 100 mM Tris-HCl pH 8.0, 303 K, crystal structure of the complex at 2.0 Å, 30.0 °C, varied: cofactor.

Substrate in series [2]: NC(=O)C1=CN([C@@H]2O[C@H](COP(=O)(O)OP(=O)(O)OC[C@H]3O[C@@H](n4cnc5c(N)ncnc54)[C@H](O)[C@@H]3O)[C@@H](O)[C@H]2O)C=CC1
The series is described as follows: purified protein. The class given is biochemical, Scheffersomyces stipitis. To be noted: 150 mM NaCl, 100 mM D-xylose, 100 mM Tris-HCl pH 8.0, 303 K, 30.0 °C, varied: cofactor.

Series [3] deals with the molecule itself. The series is described as follows: SEC; analytical, Superdex increase 200 10/300 GL, 40 mM Tris-HCl pH 8.0, 0 mM NaCl; 0.5 mL at 1 mg/mL; (in 50 and 100 mM NaCl generally separated into monomers).

B1: D-xylose reductase from Scheffersomyces stipitis (enzyme, UniProt P31867 1-318, looked up)
chain: MPSIKLNSGYDMPAVGFGCWKVDVDTCSEQIYRAIKTGYRLFDGAEDYANEKLVGAGVKKAIDEGIVKREDLFLTSKLWNNYHHPDNVEKALNRTLSDLQVDYVDLFLIHFPVTFKFVPLEEKYPPGFYCGKGDNFDYEDVPILETWKALEKLVKAGKIRSIGVSNFPGALLLDLLRGATIKPSVLQVEHHPYLQQPRLIEFAQSRGIAVTAYSSFGPQSFVELNQGRALNTSPLFENETIKAIAAKHGKSPAQVLLRWSSQRGIAIIPKSNTVPRLLENKDVNSFDLDEQDFADIAKLDINLRFNDPWDWDKIPIFV
notes: D-xylose reductase (SsXR) of Scheffersomyces stipitis; cloned NdeI/XhoI into pProEX-HTa; The vector adds a 6x-His tag with an rTEV protease cleavage site at the N-terminus; also called SsXR; XR; source: E. coli BL21(DE3)-T1R, purified (Ni-NTA, gel filtration)
For B1, in “purified protein [1]”, the Km worked out at 27.7 ± 2 µM and the kcat amounted to 7.63 ± 0.19 s⁻¹. Also, in the series “purified protein [2]”, the Km came to 136 ± 17 µM and the kcat came out at 2.39 ± 0.15 s⁻¹. In addition, in series [3], the “stoichiometry N” value is 2.
